Here are results for one substance from article doi:10.1101/609503.

The experiment has as its target MepS (E. coli) (UniProt P0AFV4). The experiment can be described thus: MST.

Chain of MepS (E. coli) (P0AFV4 27-188): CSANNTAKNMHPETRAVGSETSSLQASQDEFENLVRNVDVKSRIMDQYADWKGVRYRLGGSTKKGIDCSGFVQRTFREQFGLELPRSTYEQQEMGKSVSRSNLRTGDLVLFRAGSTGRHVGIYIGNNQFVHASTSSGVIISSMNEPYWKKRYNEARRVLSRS

As usually defined, the Kd is the equilibrium constant for the complex coming apart. A low value points to higher affinity. “NlpI (soluble version, residues 19-294) (from UniProt P0AFB1 19-294) (natural protein)”: the Kd amounted to 0.145 µM.
